According to patent US20110262445A1 (CEPHALON AUSTRALIA, published 2011):

T1: human IL-12 (human, UniProt P29460 23-328; P29459 23-219)
T1 construct: Recombinant (Peprotech); FLAG-tagged IL-12 in the flow cytometry assays, biotinylated in the IL-12Rβ2 assay; also called hIL-12
T1 sequence 1: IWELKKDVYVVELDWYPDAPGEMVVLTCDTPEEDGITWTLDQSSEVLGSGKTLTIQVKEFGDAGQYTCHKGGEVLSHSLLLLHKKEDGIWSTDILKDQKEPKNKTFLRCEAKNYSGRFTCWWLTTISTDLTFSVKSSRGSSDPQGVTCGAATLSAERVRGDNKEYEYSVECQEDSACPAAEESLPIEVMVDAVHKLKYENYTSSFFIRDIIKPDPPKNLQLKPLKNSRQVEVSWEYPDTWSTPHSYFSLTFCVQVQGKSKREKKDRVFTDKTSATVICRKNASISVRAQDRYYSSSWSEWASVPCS
T1 sequence 2: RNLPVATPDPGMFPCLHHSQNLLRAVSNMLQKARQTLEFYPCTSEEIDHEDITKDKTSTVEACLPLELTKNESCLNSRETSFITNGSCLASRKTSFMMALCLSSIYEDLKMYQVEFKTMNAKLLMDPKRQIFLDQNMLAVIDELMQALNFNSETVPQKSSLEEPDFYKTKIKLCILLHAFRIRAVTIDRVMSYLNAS

T2: human IL-23 (human, UniProt P29460 23-328; Q9NPF7 20-189)
T2 construct: Recombinant (Ebioscience); HIS-tagged in flow cytometry, biotinylated in some assays; also called hIL-23; rhIL-23
T2 sequence 1: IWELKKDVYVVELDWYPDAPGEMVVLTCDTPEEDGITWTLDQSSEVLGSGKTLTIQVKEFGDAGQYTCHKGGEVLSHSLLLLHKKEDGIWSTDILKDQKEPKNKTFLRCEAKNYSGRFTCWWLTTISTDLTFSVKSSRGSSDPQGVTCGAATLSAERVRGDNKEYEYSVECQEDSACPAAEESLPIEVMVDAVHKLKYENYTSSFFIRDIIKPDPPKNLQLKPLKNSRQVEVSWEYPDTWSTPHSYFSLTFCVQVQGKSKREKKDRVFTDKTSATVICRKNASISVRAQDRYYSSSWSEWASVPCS
T2 sequence 2: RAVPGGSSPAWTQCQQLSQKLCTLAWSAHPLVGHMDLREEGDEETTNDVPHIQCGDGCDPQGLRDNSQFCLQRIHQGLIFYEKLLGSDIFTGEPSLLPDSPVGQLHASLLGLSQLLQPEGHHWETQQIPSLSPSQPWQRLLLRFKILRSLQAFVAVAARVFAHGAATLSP


How the values were obtained:
[1] = target: T1, human IL-12; assay: SPR, purified scFv
[2] = target: T1, human IL-12; assay: SPR, purified scFv captured via FLAG
Experimental: (§1) A number of the scFv variants presented in TABLE 4 were selected for full characterization of binding kinetics, encompassing a broad range of mutation profiles and binding affinities. Large-scale protein expressions were carried out for each scFv. The expressed scFvs were purified as monomeric proteins and tested for binding against IL-12 and IL-23 by SPR (TABLE 5).
(§2) Purified scFvs were subjected to full kinetic characterization using a BIAcore T100 biosensor (GE Healthcare). Approximately 10,000 RU of the proprietry FLAG-specific capture molecule was immobilized on a CM5 Series S Sensor chip, using standard amine coupling chemistry in flow cells (FC) 1 and FC2 (or alternatively FC3 and FC4) of the BIAcore T100 Biosensor. The running buffer used was HBS-EP+ (BIAcore) and interactions measured at 30° C. or 35° C. to promote differentiation of scFvs with very similiar kd values. Peak purified FLAG-tagged scFvs (prepared as described in the previous paragraph) were diluted to 10 nM in running buffer, and captured on FC2 at a flow rate of 10 μl/min in order to capture 50 RU of scFv (typically 60 sec was sufficient to capture this level of tagged scFv). After an appropriate stabilization period, the target, IL-12 or IL-23, were passed over FC1 and FC2 at a flow rate of 60 μl/min at concentrations ranging from 81 nM to 0.13 nM (using a five-fold dilution of IL-12) and 81 nM to 1 nM (using a three-fold dilution of IL-23). The contact time for association was 180 sec and dissociation measured for 10 mins for the highest concentration and 300 sec for all other concentrations in the series. The sensorgram data from FC2 was subtracted from FC1 and a buffer only control. The curves were fitted using a 1:1 Langmuir equation to generate the kₐ, kd and KD values.

[3] = target: T2, human IL-23; assay: SPR, purified scFv captured via FLAG
Experimental: as §1, §2

[4] = target: T2, human IL-23; assay: SPR screen, crude scFv captured via FLAG
Summary of the method: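 Crude periplasmic FLAG-tagged scFvs were captured on an anti-FLAG surface (approx. 100 or 50 RU) in HBS-EP+ at 25 °C. IL-23 was injected for 120 s at 30 μl/min, with 200 s dissociation. Referenced sensorgrams were fitted to a 1:1 Langmuir model for ka, kd and KD.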

[5] = target: T2, human IL-23; assay: SPR, purified scFv captured via FLAG; LOD estimated 1 × 10^-5 s^-1
Experimental: as §1, §2

[6] = target: T1, human IL-12; assay: ELISA, SPR
[7] = target: T2, human IL-23; assay: ELISA, SPR

| Binder | fold affinity improvement compared to parental scFv-80 [1] [fold] | Kd [2] [pM] | koff [2] [s⁻¹] | kon [2] [M⁻¹ s⁻¹] | kon [3] [M⁻¹ s⁻¹] | koff [4] [s⁻¹] | koff [5] [s⁻¹] | binding result [6] | binding result [7] |
| --- | --- | --- | --- | --- | --- | --- | --- | --- | --- |
| scFv AW-F2 (scFv, scFv-80 variant: VH Y59S; not shown: proprietary C-terminal FLAG tag) scFv: QVQLVQSGAEVKKPGASVKVSCKASGYTFTDYYLHWVRQAPGQGLEWMGWIDPENGDTESAPKFQGRVTMTTDTSTSTAYMELRSLRSDDTAVYYCNANKELRYFDVWGQGTMVTVSSGGGGSGGGGSGGGGSEIVMTQSPATLSVSPGERATLSCRASQSISINLHWYQQKPGQAPRLLIYFASQSISGIPARFSGSGSGTEFTLTISSLQSEDFAVYYCQQSNSFPLTFGGGTKVEIKR | 5 | 46 | 0.0001 | 2.2e+06 | 350000 | 0.00025 | < 1e-05 | – | – |
| Antibody 50 (antibody, human IgG1, kappa, V domains shown, Optimized chimeric antibody (W94F, M34L, C95N)) VH: EVQLQQSGADLVRSGASIKLSCTASGFNIKDYYLHWVKQRPEQGLEWIGWIDPENGDTEYAPKFQGKATMTADTSSNTAYLQLSSLTSEDTAVYYCNANKELRYFDVWGAGTTVTVSS VL: DIVLTQSPATLSVTPGDSVSLSCRASQSISINLHWYQQKSHESPRLLIKFASQSISGIPSRFSGYGSGTDFTLSINSVETEDFGRYFCQQSNSFPLTFGAGTKLELKR | – | – | – | – | – | – | – | binds | binds |
